Results on 1 sequence are retold here after the Immune Epitope Database (IEDB).

As a reminder, the pKd is the Kd on a negative log10 scale, so that one unit is a factor of ten. Low readings indicate a high Kd, high ones a low Kd.

pKd: −log10 of the molar value.

Common to all, as to experiment: IEDB peptide-MHC binding, purified MHC/competitive/fluorescence; filed as Kd, often an IC50 or EC50 that approximates it; ≥ and ≤ were set here for values at or beyond the usual limits of such assays
Conditions in all cases: source organism: Salmonella enterica subsp. enterica serovar Typhi

In assay [1] the target is HLA-A*02:01.
Assay [2] concerns the target HLA-A*03:19.
In assay [3] the target is HLA-A*32:07.
Assay [4] concerns the target HLA-A*32:15.
Assay [5] concerns the target HLA-A*68:23.
In assay [6] the target is HLA-B*15:01.
Assay [7] has as its target HLA-B*15:42.
In assay [8] the target is HLA-B*40:13.
In assay [9] the target is HLA-B*45:06.
The target in assay [10] is HLA-B*51:01.
Assay [11] deals with HLA-B*58:01.
Assay [12] concerns the target HLA-C*04:01.
Assay [13] addresses HLA-C*06:02.

As for MTMLTRWKI, the pKd in assay [1] is 6.65; in assay [2], 5.45; in assay [3], 7.11; in assay [4] it was 7.32; in [5] it was 9.52; in assay [6], ≤ 4.70. The pKd is ≤ 5.30 in assay [7]; 6.44 in [8]; ≤ 5.30 in assay [9]; ≤ 4.70 in [10]; 8.30 in assay [11]; ≤ 5.30 in assay [12]. Also, the pKd in assay [13] is 6.19.
